A short description of this series: soluble on expression in E. coli; label from the status in PepcDB or PDB records.
“MGSDKIHHHHHHMTDSKCYAAIDIGSNAVRLLIKKVKNNENLANKRLSKVMLLRVPLRLGFDVFSLGEVSDAKVMKLRRLMKAFRQLMKIYEVINYRACATSAMRDAQNGKSVIKKVWKDTGINIEVINGQEEARMIYNNHIECLEDRAGNYIYVDVGGGSTEINFLINGELVQSLSYNIGTVRMLSNSVREGSWEQMKSDLTRLTADFQGVNIIGSGGNINKLYRLADKKDKKQSRLPITSLQELYDKLKVLTLEQRMEEFNLKTDRADVIVPAAGIFLIIAGIVKAEYIHVPVIGLADGIIDNLYAIDLKTE”: the “soluble on expression in E. coli” value is “not soluble”.
The entry for “MAAQAVSLLREVARLEAPLEELRALQSVVQAVPLHELREQAAELRLRPLFSLLNQNNREQTALCVSILERLLQAVEPIHLARNLRLDLQRGLTHPDDSVKTLTLSQIGRIVENSEAVTEILNNAELLKQIVYCIGGENLSVAKAAIKSLSRISLTQAVLEALFESNLLDDLKNVMKTNDVVRYRVYELIIDISSVSSESLNYCTTSGLVTQLLKELTGEDVLVRATCIEMVTSLAYTHHGRQYLAQEGVIDQISNIIVGADSDPFSGFYLPGFVKFFGNLAVMDSPQQICERYPVFLEKVFEMADSQDPTMIGVAVDTVGILGSSVEGKQVLQKTGTRFERVLMRVGYQAKNASTELKIRCLDAVSSLLYLSPEQQTDDFLGMTESWFSSMSRDSLELFRGISNQPFPELHCAALKVFTAIADQPWAQRLMFNSPGFVEFVMDRSVEHDKASKDAKYELVKALANSKTVAEIFGNSNYLRLRAYLSEGPYYVKPVATTAVEGAD” is “soluble”; for “MHHHHHHSSGVDLGTENLYFQSGVVTHEQFKAALRMVVDQGDPRLLLDSYVKIGEGSTGIVCLAREKHSGRQVAVKMMDLRKQQRRELLFNEVVIMRDYQHFNVVEMYKSYLVGEELWVLMEFLQGGALTDIVSQVRLNEEQIATVCEAVLQALAYLHAQGVIHRDIKSDSILLTLDGRVKLSDFGFCAQISKDVPKRKSLVGTPYWMAPEVISRSLYATEVDIWSLGIMVIEMVDGEPPYFSDSPVQAMKRLRDSPPPKLKNSHKVSPVLRDFLERMLVRDPQERATAQELLDHPFLLQTGLPECLVPLIQLYRKQTSTC” it is “soluble”.
Consider “MKTENAKTNQTLVENSLNTQLSNWFLLYSKLHRFHWYVKGPHFFTLHEKFEELYDHAAETVDTIAERLLAIGGQPVATVKEYTEHASITDGGNETSASEMVQALVNDYKQISSESKFVIGLAEENQDNATADLFVGLIEEVEKQVWMLSSYLG”, for which the “soluble on expression in E. coli” value is “soluble”.
As to “GMQFPSIEDLRARNTMKWTRYGQGVLPLWVAESDFSTCPAVLQAITDAVQREAFGYQPDGSLLSQATAEFYADRYGYQARPEWIFPIPDVVRGLYIAIDHFTPAQSKVIVPTPAYPPFFHLLSATQREGIFIDATGGINLHDVEKGFQAGARSILLCNPYNPLGMVFAPEWLNELCDLAHRYDARVLVDEIHAPLVFDGQHTVAAGVSDTAASVCITITAPSKAWNIAGLKCAQIIFSNPSDAEHWQQLSPVIKDGASTLGLIAAEAAYRYGTDFLNQEVAYLKNNHDFLLHEIPKRIPGAKITPMQATYLMWIDFRDTTIEGSPSEFFIEKAKVAMNDGAWFGEDGTGFCRLNFATSREVLEEAIDRMAKAVSHHT”, the “soluble on expression in E. coli” value was “soluble”.
Regarding “SAGSVADSDAVVKLDDGHLNNSLSSPVQADVYFPRLIVPFCGHIKGGMRPGKKVLVMGIVDLNPESFAISLTCGDSEDPPADVAIELKAVFTDRQLLRNSCISGERGEEQSAIPYFPFIPDQPFRVEILCEHPRFRVFVDGHQLFDFYHRIQTLSAIDTIKINGDLQITKLG”, the “soluble on expression in E. coli” value was “soluble”.
The entry for “MSDFVPETEENEEESQKIDEIHEIPAQAIIIDQSFSRRFLNNKWYGKYGEDGDLLEHIDEDWEPVGLDEVEFLSQLWFEQEDQEKKAHRHYDWDEEKKEWVPKAKQEEVNEDFIAEYQANYGVQYDDIYKKMDEELQEKAAKAQKEDEEKKEKKRKKKVGLGAGEDAKEGWLDLGDKVHAVYVSNLPEDITDEEFQKFMSKCGVIQPDIRTNKPKCKLYREENGKLKGDGRCCYIKKESVELACNILDGANLNGREVKVEEARFEMKGDFDPARKRRKLTAAQKKRYMEQQNKIFEWTPDKPRNYRPKSDCTVIVKNLFTQEMMNKNAALMLDLKEEMTQSCQKYGIVKKVVVYANHPDGVVSVTFPTTEESDMAVKYLHGRVVDGRKLTAELWDGRTKFKVEETEEDEEKRRKEYEKYIEGGSSETKEESDDDDDDEAEDN” is “not soluble”; for “MGSDKIHHHHHHVALAIPQIHAHEHSDEQLMQRYAQGDSQAFEQLYLKHKGALYRYFVRQLGDKQLAEDLYQETWGRVIRAAVNYQVSAKFSTWLYRIAHNLLIDHVRAVKPVDFIASDTDVTGLDTFEGCDQDKPDIHWQEAQKSLLLKTCISLLPQVQKEAFILNIEMGFTAAMISDIAGVTLEATKSRIRYAYQSLKECVNAKWQEAGHE” it is “not soluble”.
The entry for “MGSDKIHHHHHHMKAFDRDASEPRIGLAYGPGMAEFAARNAHLVDYIEVPFEQLRFSPAVAELQQTIPFVLHCASLSVAGFVPPDDSTVDAIERTAVQTGTPWIGEHLAYISADPVGEALGGTGEPTSLSYTLCPQLSDETVRRVVDNLAALRPHFPVPLIVENSPQYFPIPGSTMGMTDFIRAITDRCDVGLLLDLSHFLITAHNTGAEVHRELARLPLERVVEVHLSGMSVQSGTAWDDHSLPASPILFELLERLLDVARPRALTFEYNWSPYFPLSVLTTHIERARQLMGLA” is “not soluble”.
As for “MKRIGYARTTIIEDDLKNQLTTLQSFGCDDIFQETFDPQAEISVLDEVEKLLSAGDTLIVCKLHHLGKTTRQLTDFMKMLKEKQVDFVSISEGIDTHLPTGEAYFQLMESLSAMECALIKERTLVGLHKARENGKVGGRPKIDGRTVRKIRALYYENKETIQFISNKCGVSVGTCYKYINLPETDVERLYS”, the “soluble on expression in E. coli” value was “not soluble”.
The entry for “MSKVKTRFAPSPTGYLHLGNARTAIFSYLFARHNNGGFVLRIEDTDPERSKKEYEEMLIEDLKWLGIDWDEFYRQSERFDIYREYVNKLLESGHAYPCFCTPEELEKEREEARKKGIPYRYSGKCRHLTPEEVEKFKKEGKPFAIRFKVPENRTVVFEDLIKGHIAINTDDFGDFVIVRSDGSPTYNFVVVVDDALMGITHVIRGEDHIPNTPKQILIYEALGFPVPKFAHLPVILGEDRSKLSKRHGAVSVRAYREEGYMPEALFNYLCLLGWSPPEEGREIFSKEELIKIFDLKDVNDSPAVFNKEKLKWMNGVYIREVLPLDVLLERAIPFLEKAGYDTSDREYIKKVLEYTRDSFDTLSEMVDRLRPFFVDEFEIPEELWSFLDDEKAYQVLSAFLEKIREKKPETPQEVKKLAKEIQKALKVKPPQVWKPLRIALTGELEGVGIDILIAVLPKEKIEKRILRVLEKLS” is “soluble”; for “MGSDKIHHHHHHMQFLYNKQAGEEFIQLQGENFNHLKVRRVKENSELNLRNLQDNFLYNYTITNLTRNSCTLKFLNKKSQNIKQSELNLALAIIDIKILEKTLPFLNELGVKKLHLVFTNFSQRNFKIDLERFEKIIISSCEQCGRNTKMDLIIHQSTQEFVQKFPNAIMVDFQGEQQSHFDEKELYFIGPEGGFNNDERLLFNRKISLKSSNILKSQTAIIAIASKILL” it is “not soluble”.
Take “MRISNGSGGDNVFTSGRFRRRGAATPLISLDFIVENGQGEILLGQRLNRPAQGYWFVPGGRVCKDETLEAAFARLTQAELGVRLPLAAGTFYGVWQHFYDDNFSGEDFSTHYIVLGFRLRVAESDLRLPDAQHGSYRWLTPEQLLASDNVHENSRAYFSPDAPAVGL”: the “soluble on expression in E. coli” value is reported as “not soluble”.
The result for “MRHPDFPVPPRIDAFASWEASLRLAFARRGGRTVLASCRHRGPLRVQKALYPEGEGVCHVVLLHPPAGIAGGDVLDIGIELGAEAHAVLTTPGATKWYKSPGRTAMQQVAIRLDAGARLDWLPQENIVFNQARPVIDLTLDLAPGAAAIGWDITMLGRHAAGESWQEGRIAMHTRLRCEGQPLWIESTAFDAQSPVLGATTGMAGFHVVGTLWAVGAGATEALAETLAEQLPYRDDLRAGVTCLTQDAPGRPSVLLLRVLARRPEDARALLSQTWLALREPIHGVAGRPLRLWATLEHHHHHH” reads “not soluble”.
In the case of “MGSDKIHHHHHHMATLSDFNRDGKRYVALNGVGDDQDQSILFDHVSSYDLIRSFVDANCNWSRVLESRKNQWKPSILPEADGLAYNPPGKPEDIRNCTVSAFGNTHKTINNSLSSQKDVDWFYKGNGTTVIGTDHPLISNLNSYGCGIEIEYAAVFMINAAGDPVYIGYTIANDFSDAEMRRRMPSLANLSKLATTSFGRFLFLAPIPTKTEIACTILRHGKPAWRVNGQLGSEAMKYSFSYLNELLFQNQSIKGDAYTIHYMLLGASISSNKAEFDMKHSDIILVHDEDNNVILRNEYIDEAIVCACC”, the “soluble on expression in E. coli” value is “not soluble”.
The result for “MGSDKIHHHHHHMKTLKFKLYQHKRNRHLKRIINAAGVIYNHCIALHKRYYRMWGNHLSCAKLQSHIAKLRKRNLFWQSLGSQAVQDICQRIEKAYQLFFKHNKKGVRPPGFKKVKKYKSFTLKQAGYKFLGSNRVKIGHRVYQFWKSRDIEGTVKTLTIKRTPLGELFMVVVVDNVSQAEIEVKTGKIAGFDFGLKTFLTCSDGTKIESPQFFKQSLNAIKKASRQHSKKLKSSSNRERARKNLVRKYEDISHRRRDWFWKLAHELTDKFDILCFETLNLKGMQRLWGRKISDLAFGEFLQILKWIAKKKNKLVVFIDQWYPSTKTCSGCGHVLEELDLSIREWRCPSCQSVNGRDENASKVICAVGASTVGLGDVSRYETAIAV” reads “not soluble”; that for “APLATRQGKRPSKNLKARCSRKALHVNFKDMGWDDWIIAPLEYEAFHCEGLCEFPLRSHLEPTNHAVIQTLMNSMDPESTPPTCCVPTRLSPISILFIDSANNVVYKQYEDMVVESCGCR”, “soluble”; that for “MEGLLIDYVQPGSIAEELEIEAGDRLVAINGQDLRDIIDFSFYAHDEELALEIVKPSGDHWEAEIERDGDEPLGLVFAPPVPAQCGNKCVFCFVHQLPKGLRRPLYVKDEDYRLSFLYGNYVTLSNIRRGDLDRIVAQRLSPLYISVHATNPALRERLLGRSEILPILDLMRELAAARIVMHSQIVLCPGLNDGVELEKTVRDLAGLHPWVESLAIVPIGLTKHRRGLPALEPVTASYAETFVQNWQPAAERLERELGAPFLFIADEFYIKAGLPFPPLETYGDLPQIENGVGMIPLFLDESERVLKKARKGKPVTVTVVTGESPYRYLAAFLERLSVRTGATFKPVAVHNRLFGESVTVTGLVAGSDIVEELSGRDLGDAVLVPDVMLKEGEGIFLDDLSVDGLGKSLGTRVLVVEATPQGVVDALRRVRSMLEHHHHHH”, “not soluble”.
The entry for “MGDYENVLMVKPKVFVYRIPPIGTSGHKAADWNLDSPAWTGRMRLVAIGKRLEMRLEDGETCDLYAKCPIDAHPGNAIEAVSDSSRYFVIRLQNDNGQQAFVGCGFQERGDAFDFNVTLQDHFRYIERSAELEKQDLSAGPSLDLAFKEGQTISINIGKKDKSAVSRPRPAPGASTGGLVPLLPPPPGAGSMIRNSRPSTTTTTASSSLSSAFAAPPPAPSSSTSTTATSGNLLDF” is “not soluble”.
The result for “GSPEFRWTKEEEETRQMYDMVVKIIDVLRSHNEACQENKDLQPYMPIPHVRDSLIQPHDRKKMKKVWDRAVDFLAANESRVRTETRRIGGADFLVWRWIQPSASCDKILVIPSKVWQGQAFHLDRRLERPHRD” reads “soluble”; that for “VNSHCSHTFITDNRSPRARRGHAMSTLHKVKAYFGMAPMEDYDDEYYDDRAPSRGYARPRFDDDYGRYDGRDYDDARSDSRGDLRGEPADYPPPGYRGGYADEPRFRPREFDRAEMTRPRFGSWLRNSTRGALAMDPRRMAMMFEDGHPLSKITTLRPKDYSEARTIGERFRDGSPVIMDLVSMDNADAKRLVDFAAGLAFALRGSFDKVATKVFLLSPADVDVSPEERRRIAETGFYAYQ”, “not soluble”.

Source of the values: the DeepSol protein solubility set.
